Assay results from patent WO1997049805A2 (dated 1997).

Molecular target: hen egg-white lysozyme (hen, UniProt P00698 19-147)
Test: method not stated

B1: cAb-Lys3 (VHH)
VHH: DVQLQASGGGSVQAGGSLRLSCAASGYTIGPYCMGWFRQAPGKEREGVAAINMGGGITYYADSVKGRFTISQDNAKNTVYLLMNSLEPEDTAIYYCAADSTIYASYYECGHGLSTGGYGYDSWGQGTQVTVSS
Ka: 2e+07 M⁻¹
